Measurements from US11739161B2, “Methods for treating and diagnosing prostate cancer” (Tufts Medical Center, Inc., priority 2017, dated 2023).

Experiments:
[1] = test system: AXL phosphorylation in PC-3 cells; assay: AXL phosphorylation (phospho-RTK array, immunoblot); type: cell-based, human; settings: serum-starved PC-3, 1 μg/ml RNASE4
Protocol: FIGS. 11A-F. RNASE4 induces PC-3 cell proliferation and phosphorylation of AKT and S6. (A) Exogenous RNASE4 (1 μg/ml) stimulates PC-3 cells proliferation in the presence of 2% FBS. Cell numbers were determined by MTT assay. (B) Time course of AKT and S6 phosphorylation of serum-starved PC-3 cells by RNASE4 (1 μg/ml). Left panels, immunoblots; right panels, quantification of p-AKT and p-S6 normalized to total AKT and S6 by Image J. (C) Effect of AKT inhibitor MK-2206, PI3K inhibitors LY294002 and Wortmannin, and mTOR inhibitor Rapamycin on RNASE4-induced PC-3 cell proliferation. Cells were pre-incubated with the inhibitors at the indicated concentrations for 1 hour prior to be stimulated by RNASE4 (1 μg/ml) for 3 days. Cell numbers were determined by MTT assay. (D) Human phospho-RTK antibody array analysis of starved PC-3 cells treated with or without 1 μg/ml RNASE4 for 5 minutes. (E) Time course of AXL phosphorylation stimulated by RNASE4 in PC-3 cells. […] Cell lysates were analyzed for total AXL and phopho-AXL by immunoblotting. Left panels, immunoblots; right panel, quantification phospho-AXL normalized to total AXL by Image J analysis. […] Cell numbers were determined by MTT assay. […]
Human Phospho-RTK Arrays were purchased from R&D Systems. […] Protein concentrations were quantified by Bradford Assay and 1.5 mg cell lysate was used per array. Pixel densities on were analyzed by ImageJ. […]

[2] = test system: PC-3 cells; assay: RNASE4-induced cell proliferation (MTT assay); type: cell-based, human; settings: exogenous RNASE4 1 μg/ml, PC-3, 2% FBS
Protocol: FIGS. 11A-F. RNASE4 induces PC-3 cell proliferation and phosphorylation of AKT and S6. (A) Exogenous RNASE4 (1 μg/ml) stimulates PC-3 cells proliferation in the presence of 2% FBS. Cell numbers were determined by MTT assay. (B) Time course of AKT and S6 phosphorylation of serum-starved PC-3 cells by RNASE4 (1 μg/ml). Left panels, immunoblots; right panels, quantification of p-AKT and p-S6 normalized to total AKT and S6 by Image J. (C) Effect of AKT inhibitor MK-2206, PI3K inhibitors LY294002 and Wortmannin, and mTOR inhibitor Rapamycin on RNASE4-induced PC-3 cell proliferation. Cells were pre-incubated with the inhibitors at the indicated concentrations for 1 hour prior to be stimulated by RNASE4 (1 μg/ml) for 3 days. Cell numbers were determined by MTT assay. (D) Human phospho-RTK antibody array analysis of starved PC-3 cells treated with or without 1 μg/ml RNASE4 for 5 minutes. (E) Time course of AXL phosphorylation stimulated by RNASE4 in PC-3 cells. Serum-starved PC-3 cells were treated with 1 μg/ml RNASE4 for different time. Cell lysates were analyzed for total AXL and phopho-AXL by immunoblotting. Left panels, immunoblots; right panel, quantification phospho-AXL normalized to total AXL by Image J analysis. (F) Effect of AXL inhibitor R428 on RNASE4-induced PC-3 cell proliferation. Serum-starved PC-3 cells were incubated with 1 or 3 μM R428 for 3 hours and then stimulated by 1 μg/ml of RNASE4 for 3 days. Cell numbers were determined by MTT assay. Data shown are means±SEM of a representative experiments in triplicates of 3 independent repeats. **P≤0.01 and ***P≤0.001, by unpaired two-tailed Student's t test.

B1: RNASE4: recombinant human RNASE4 protein from pET11 expression in E. coli, purified by reversed-phase HPLC; added exogenously (protein, UniProt P34096 29-147, looked up)
Ribonuclease 4: QDGMYQRFLRQHVHPEETGGSDRYCNLMMQRRKMTLYHCKRFNTFIHEDIWNIRSICSTTNIQCKNGKMNCHEGVVKVTDCRDTGSSRAPNCRYRAIASTRRVVIACEGNPQVPVHFDG
phosphorylation of AXL [1]: induced phosphorylation | cell proliferation [2]: stimulates
